From patent publication EP2265632B1 (Elevation Biotech (Pty) Ltd., dated 2009) come the findings set out here.

One may read the Kd as the free concentration of one partner at which half of the binding sites on the other are occupied at equilibrium, for simple one-to-one binding.

This assay concerns the target recombinant HIV-1BaL gp120 (HIV-1 BaL). Kind of assay: SPR (Biacore 3000), gp120BaL immobilised on CM5 chip, peptide as analyte. In general terms: SPR reads the build-up and loss of mass on a sensor chip optically.

B1: 12p1 (RINNIPWSEAMM), 12-mer peptide (peptide)
peptide: H-RINNIPWSEAMM-NH2
notes: Quality control peptide of the SPR assay
As for B1, the Kd stood at 1020 nM.
